Measured values as given in paper PMC11417369, “DNA sequence and chromatin differentiate sequence-specific transcription factor binding in the human malaria parasite Plasmodium falciparum”.

T1: PF3D7_0420300 D1 (Plasmodium falciparum, UniProt Q8I1N6 1956-2015)
T1 sequence: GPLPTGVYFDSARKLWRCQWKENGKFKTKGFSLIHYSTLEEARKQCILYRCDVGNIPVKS

B1: CACACA_negctrl_site1508 (dsDNA)
DNA 1: TTTTACTCTTAAAATAATAAAAAATATTCACATTTA
DNA 2: TAAATGTGAATATTTTTTATTATTTTAAGAGTAAAA
B2: CACACA_site2222 (dsDNA)
DNA 1: GGAAAAAATATATGCACACCCCCCAAAAAAAAAAAA
DNA 2: TTTTTTTTTTTTGGGGGGTGTGCATATATTTTTTCC
B3: CACACA_site9348 (dsDNA)
DNA 1: TATATTTTGTTCTTTCCACACACAAATACATATATT
DNA 2: AATATATGTATTTGTGTGTGGAAAGAACAAAATATA
B4: CACACA_site2206 (dsDNA)
DNA 1: AAAAAAAACACGCGCACACACACACCCACCCACCGA
DNA 2: TCGGTGGGTGGGTGTGTGTGTGCGCGTGTTTTTTTT
B5: CACACA_negctrl_site1405 (dsDNA)
DNA 1: ATGAAAAAAAAAAAAAAAAAAAAAAAAAAAAAAAAA
DNA 2: TTTTTTTTTTTTTTTTTTTTTTTTTTTTTTTTTCAT
B6: CACACA_negctrl_site1119 (dsDNA)
DNA 1: ATTTTTTTTTTTTTTTTTTTTTTTTGGAGAAAGAGA
DNA 2: TCTCTTTCTCCAAAAAAAAAAAAAAAAAAAAAAAAT
B7: CACACA_negctrl_site896 (dsDNA)
DNA 1: TGATTAAAAGAGGGAAAAAAAAAAAAAAAAAAAAAA
DNA 2: TTTTTTTTTTTTTTTTTTTTTTCCCTCTTTTAATCA
B8: CACACA_site9117 (dsDNA)
DNA 1: AAAAAAAAAAAAAAAACACACATACACCCCCACCCA
DNA 2: TGGGTGGGGGTGTATGTGTGTTTTTTTTTTTTTTTT
B9: CACACA_negctrl_site146 (dsDNA)
DNA 1: TTTATAAAAAATTTTTTTTTTTTTTTTTAAATATAT
DNA 2: ATATATTTAAAAAAAAAAAAAAAAATTTTTTATAAA
B10: CACACA_negctrl_site412 (dsDNA)
DNA 1: ATAAAAAGGTTTAAAAAAAAAAAAAAAAAAAAAAAA
DNA 2: TTTTTTTTTTTTTTTTTTTTTTTTAAACCTTTTTAT
B11: CACACA_negctrl_site29 (dsDNA)
DNA 1: TTTTTTTTTTTTTTTTTTTTTTTGCTCAGTGTGGTA
DNA 2: TACCACACTGAGCAAAAAAAAAAAAAAAAAAAAAAA
B12: CACACA_negctrl_site1541 (dsDNA)
DNA 1: TGCTAATAATTATTTGTTTAGCAACAAAAAAAAAAA
DNA 2: TTTTTTTTTTTGTTGCTAAACAAATAATTATTAGCA
B13: CACACA_negctrl_site1638 (dsDNA)
DNA 1: ACATGTATACTTTTTACGAAAAAAAAAAAAAAAAAA
DNA 2: TTTTTTTTTTTTTTTTTTCGTAAAAAGTATACATGT
B14: CACACA_negctrl_site1559 (dsDNA)
DNA 1: ATATTAAAATGAAAATATAAAAAAAAAAAAAAAAAA
DNA 2: TTTTTTTTTTTTTTTTTTATATTTTCATTTTAATAT
B15: CACACA_site6664 (dsDNA)
DNA 1: CATATATTTTGAAACACACACATATAAAATATACAT
DNA 2: ATGTATATTTTATATGTGTGTGTTTCAAAATATATG
B16: CACACA_negctrl_site1078 (dsDNA)
DNA 1: TAAATTCTTTAAAACTTTAAAACAAAAAAAAAAAAA
DNA 2: TTTTTTTTTTTTTGTTTTAAAGTTTTAAAGAATTTA
B17: CACACA_negctrl_site558 (dsDNA)
DNA 1: TTTTTTATATTAAATGAAGAATATACAAAATTTTAA
DNA 2: TTAAAATTTTGTATATTCTTCATTTAATATAAAAAA
B18: CACACA_negctrl_site1218 (dsDNA)
DNA 1: TAATTTTTTTTTTTTTTTTTTTTTTTTTTTTTTTTA
DNA 2: TAAAAAAAAAAAAAAAAAAAAAAAAAAAAAAAATTA

Each binder was assayed against T1, PF3D7_0420300 D1 (assay: gcPBM; about 25 ug protein; PBS, 1% milk, 0.2 mg/ml BSA, salmon testes DNA, 0.03% Triton X-100). Details: tags: N-terminal GST (pGEX-4T-1), kept; label: surface-attached array probe.

**Q.** How did the binding signal turn out when B1 was run?
**A.** 8.65 ln median PBM intensity, better of two orientations

**Q.** How did the binding signal turn out when B2 was run?
**A.** 10.7 ln median PBM intensity, better of two orientations

**Q.** Which binding signal does the source give for B3 here?
**A.** 9.82 ln median PBM intensity, better of two orientations

**Q.** Which binding signal does the source give for B4 here?
**A.** 10.7 ln median PBM intensity, better of two orientations

**Q.** How did the binding signal turn out when B5 was run?
**A.** 8.53 ln median PBM intensity, better of two orientations

**Q.** How did the binding signal turn out when B6 was run?
**A.** 8.63 ln median PBM intensity, better of two orientations

**Q.** For B7, which binding signal is on record?
**A.** 8.33 ln median PBM intensity, better of two orientations

**Q.** For B8, which binding signal is on record?
**A.** 10.7 ln median PBM intensity, better of two orientations

**Q.** For B9, which binding signal is on record?
**A.** 8.66 ln median PBM intensity, better of two orientations

**Q.** How did the binding signal turn out when B10 was run?
**A.** 8.38 ln median PBM intensity, better of two orientations

**Q.** B11 was tested. Which binding signal did it give?
**A.** 8.55 ln median PBM intensity, better of two orientations

**Q.** With B12 as the binder, how does the binding signal read?
**A.** 8.69 ln median PBM intensity, better of two orientations

**Q.** How did the binding signal turn out when B13 was run?
**A.** 8.58 ln median PBM intensity, better of two orientations

**Q.** Which binding signal does the source give for B14 here?
**A.** 8.43 ln median PBM intensity, better of two orientations

**Q.** Which binding signal does the source give for B15 here?
**A.** 9.81 ln median PBM intensity, better of two orientations

**Q.** For B16, which binding signal is on record?
**A.** 8.74 ln median PBM intensity, better of two orientations

**Q.** With B17 as the binder, how does the binding signal read?
**A.** 8.73 ln median PBM intensity, better of two orientations

**Q.** Which binding signal does the source give for B18 here?
**A.** 8.72 ln median PBM intensity, better of two orientations
